US20120065136A1 (UNIVERSITY OF ROCHESTER, published 2012)

T1: A3C1C2 subunit of factor VIII (human, UniProt P00451 1709-2351)
T1 sequence: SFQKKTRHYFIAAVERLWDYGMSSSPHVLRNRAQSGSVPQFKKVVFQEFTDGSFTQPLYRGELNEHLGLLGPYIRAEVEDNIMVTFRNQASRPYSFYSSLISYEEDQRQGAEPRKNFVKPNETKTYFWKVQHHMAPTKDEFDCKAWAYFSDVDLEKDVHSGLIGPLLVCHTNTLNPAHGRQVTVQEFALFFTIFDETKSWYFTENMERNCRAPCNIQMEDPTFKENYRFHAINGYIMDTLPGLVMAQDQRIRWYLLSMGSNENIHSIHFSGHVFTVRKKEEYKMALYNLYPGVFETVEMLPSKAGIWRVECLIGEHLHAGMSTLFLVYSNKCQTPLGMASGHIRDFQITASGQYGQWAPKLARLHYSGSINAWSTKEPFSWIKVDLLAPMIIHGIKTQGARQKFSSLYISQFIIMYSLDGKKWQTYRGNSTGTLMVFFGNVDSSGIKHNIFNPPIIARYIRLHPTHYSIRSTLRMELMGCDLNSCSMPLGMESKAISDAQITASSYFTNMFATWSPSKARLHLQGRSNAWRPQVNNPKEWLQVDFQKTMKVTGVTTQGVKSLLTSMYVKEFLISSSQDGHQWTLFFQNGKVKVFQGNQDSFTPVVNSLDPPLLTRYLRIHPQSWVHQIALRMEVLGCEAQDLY


What was measured:
[1] = target: T1, A3C1C2 subunit of factor VIII; test: cell-based or functional assay
[2] = target: T1, A3C1C2 subunit of factor VIII; test: fluorescence titration of acrylodan-labeled A1 (15 nM) with A3C1C2 (0-300 nM), pH 7.4, quadratic fit
Description: (§1) Purified A1 subunit from WT and Ala108Ile factor VIII was labeled with acrylodan by sulfhydryl specific protein modification as previously described (Wakabayashi et al., “Metal Ion-independent Association of Factor VIII Subunits and the Roles of Calcium and Copper Ions for Cofactor Activity and Inter-subunit Affinity,” Biochemistry 40:10293-10300 (2001), which is hereby incorporated by reference in its entirety). A1 (15 nM) from WT or Ala108Ile factor VIII was reconstituted with A3C1C2 subunit (0-300 nM) at 37° C. for 2 h in buffer B at pH 7.4. Fluorescence measurements were performed using an Aminco-Bowman Series 2 Luminescence Spectrometer (Thermo Spectronic, Rochester, N.Y.) at 23° C. at an excitation wavelength of 395 nm (2 nm bandwidth). Fluorescence emission was monitored at 480-490 nm (8 nm bandwidth) and all spectra were corrected for background. Data were fitted to a quadratic equation by non-linear least squares regression and parameter values were obtained.
(§2) To assess the affinity of the Ala108Ile A1 domain for C2 domain, the purified factor VIII variant and WT were treated with thrombin and the A1 subunits were separately purified as described supra. A1 subunits were then reacted with the environment-sensitive fluorescent probe, acrylodan, and these reagents were used to probe binding with the A3C1C2 subunit. […]

[3] = target: T1, A3C1C2 subunit of factor VIII; test: fluorescence titration of acrylodan-labeled A1 with A3C1C2
Description: as §1, §2

[4] = target: T1, A3C1C2 subunit of factor VIII; test: changes in fluorescence of acrylodan labeled-A1 subunits
Description: as §1, §2

Row | fold reduction of decay rate against WT A1 [1] | Kd [2] | fold increase in affinity against WT A1 [3] | fold increase in binding affinity against WT [4] | Binder
1 | 4.6 fold | – | – | – | A1 subunit from Ala108Ile factor VIII (other) ATRRYYLGAVELSWDYMQSDLGELPVDARFPPRVPKSFPFNTSVVYKKTLFVEFTVHLFNIAKPRPPWMGLLGPTIQAEVYDTVVITLKNMASHPVSLHAVGVSYWKISEGAEYDDQTSQREKEDDKVFPGGSHTYVWQVLKENGPMASDPLCLTYSYLSHVDLVKDLNSGLIGALLVCREGSLAKEKTQTLHKFILLFAVFDEGKSWHSETKNSLMQDRDAASARAWPKMHTVNGYVNRSLPGLIGCHRKSVYWHVIGMGTTPEVHSIFLEGHTFLVRNHRQASLEISPITFLTAQTLLMDLGQFLLFCHISSHQHDGMEAYVKVDSCPEEPQLRMKNNEEAEDYDDDLTDSEMDVVRFDDDNSPSFIQIR
2 | – | 88.7 nM | – | – | acrylodan-labeled A1 subunit from WT factor VIII (other, acrylodan on a free thiol, likely Cys310, A1 subunit purified from thrombin-cleaved, EDTA-treated recombinant B-domainless WT factor VIII (BHK cells), then labelled with acrylodan; also called AcA1 (WT); WT A1 subunit) ATRRYYLGAVELSWDYMQSDLGELPVDARFPPRVPKSFPFNTSVVYKKTLFVEFTVHLFNIAKPRPPWMGLLGPTIQAEVYDTVVITLKNMASHPVSLHAVGVSYWKASEGAEYDDQTSQREKEDDKVFPGGSHTYVWQVLKENGPMASDPLCLTYSYLSHVDLVKDLNSGLIGALLVCREGSLAKEKTQTLHKFILLFAVFDEGKSWHSETKNSLMQDRDAASARAWPKMHTVNGYVNRSLPGLIGCHRKSVYWHVIGMGTTPEVHSIFLEGHTFLVRNHRQASLEISPITFLTAQTLLMDLGQFLLFCHISSHQHDGMEAYVKVDSCPEEPQLRMKNNEEAEDYDDDLTDSEMDVVRFDDDNSPSFIQIR
3 | – | 24.1 nM | ~4 fold | ~3.7 fold | acrylodan-labeled A1 subunit from Ala108Ile factor VIII (other, acrylodan on a free thiol, likely Cys310, A1 subunit purified from thrombin-cleaved, EDTA-treated B-domainless Ala108Ile factor VIII, then labelled with acrylodan; also called AcA1 (Ala108Ile); Ala108Ile A1) ATRRYYLGAVELSWDYMQSDLGELPVDARFPPRVPKSFPFNTSVVYKKTLFVEFTVHLFNIAKPRPPWMGLLGPTIQAEVYDTVVITLKNMASHPVSLHAVGVSYWKISEGAEYDDQTSQREKEDDKVFPGGSHTYVWQVLKENGPMASDPLCLTYSYLSHVDLVKDLNSGLIGALLVCREGSLAKEKTQTLHKFILLFAVFDEGKSWHSETKNSLMQDRDAASARAWPKMHTVNGYVNRSLPGLIGCHRKSVYWHVIGMGTTPEVHSIFLEGHTFLVRNHRQASLEISPITFLTAQTLLMDLGQFLLFCHISSHQHDGMEAYVKVDSCPEEPQLRMKNNEEAEDYDDDLTDSEMDVVRFDDDNSPSFIQIR
